Assays:
[1] = target: human IL-4R alpha on cells (TF-1 cells; human peripheral blood mononuclear cells) (human, UniProt P24394 26-825); experiment: cell-based or functional assay
hIL-4R alpha-ECD-Fc = target: T1, hIL-4R alpha-ECD-Fc (human, UniProt P24394 26-232); experiment: ELISA, plate coated with 1 ug/ml hIL-4R alpha-ECD-Fc
T1 construct: range 26-232; hFc at the C-terminus of the ECD; also called hIL4R alpha-ECD-hFc; hIL-4R alpha-Fc antigen
Protocol: The titer was tested by ELISA: an ELISA plate was coated with the hIL-4R alpha ECD-Fc antigen at a concentration of 1 μg/ml, 100 μl per well, and coated overnight at 4° C. The plates were washed twice with PBST (PBS containing 0.5% Tween-20) and then pat-dried. Each well was blocked with 200 μl of coating solution containing 1% BSA, blocked at room temperature for 4 h, pat-dried, and stored in a refrigerator at −20° C. for later use. During testing, 100 μl of mouse serum at different concentrations was added to each well of the ELISA plate, with two replicate wells, for incubation at room temperature for 1.5 h. The wells were washed with PBST for 3 times and then pat-dried. Then 100 μl of rabbit anti-mouse IgG labeled with HRP diluted with PBST by 1:10000 (purchased from Sigma) was added and the plates were incubated at room temperature for 1 h. The wells were washed with PBST for 3 times and then pat-dried. Then 100 μl of chromogenic solution was added to each well (an ELISA chromogenic solution A was mixed with a chromogenic solution B at a volume ratio of 1:1 before use) for a chromogenic reaction, and then 100 μl of 2M H2SO4 stopping solution was added to each well to terminate the reaction. The OD value of each well was immediately measured at 450 nm with a microplate reader (Molecular Device).
Optimized murine anti-hIL-4R alpha monoclonal antibodies were purified by a ProteinG affinity chromatography column and quantified by BCA. The EC50 of anti-hIL-4R alpha monoclonal antibodies binding to hIL-4R alpha was tested by ELISA. The testing method is as described in Example 3. An ELISA plate was coated with 1 μg/ml of hIL-4R alpha-ECD-Fc antigen, and then murine anti-hIL-4R alpha monoclonal antibodies at different concentrations were added for testing.

hIL-4R alpha-ECD-Flag = target: T2, hIL-4R alpha-ECD-Flag (human, UniProt P24394 26-232); experiment: SPR, Biacore T200, antibody captured on Protein-A chip, hIL-4R alpha-ECD-Flag as analyte
T2 construct: range 26-232; Analyte of the Biacore experiment
Protocol: The affinity of six purified humanized antibodies was detected by Biacore T200 (GE healthcare), with the reference antibody Dupilumab as a control. The specific experimental method was as follows: a Protein-A CMS sensor chip (GE healthcare) was used, with FC1 (Flow cell 1) as a reference channel, and FC2 (Flow cell 2) as a sample channel. Humanized antibodies or control antibody were captured in the FC2 channel, and then hIL-4R alpha-ECD-Flag at different concentrations was injected. Cycling conditions were as follows: an analyte was injected into all channels of FCs at 50 μl/min for 4 min, with a dissociation time of 20 min, and 6M guanidine hydrochloride (Sinopharm Chemical Reagent Co., Ltd.) was injected at a rate of 10 μl/min for 30 s for surface regeneration. Then, signal differences and affinity for interaction between captured antibodies and non-captured antibodies were calculated by Biacore T200 Evaluation Software Ver 1.0.

IC50 (ng/ml), inhibition of IL-4-induced TF-1 proliferation [1] [ng/mL] | EC50 (hIL-4R alpha-ECD-Fc) [µg/mL] | Kd (hIL-4R alpha-ECD-Flag) [nM] | koff (hIL-4R alpha-ECD-Flag) [s⁻¹] | kon (hIL-4R alpha-ECD-Flag) [M⁻¹ s⁻¹] | Binder
65.3 | 0.0076 |  |  |  | murine anti-hIL-4R alpha monoclonal antibody 29 (antibody, V domains shown, Mouse hybridoma antibody purified on ProteinG) VH: EVQLVESGGGLVKPGGSLKLSCAASGFTFSDYGMHWVRQAPEKGLEWVAYINSGSSKIYHADTVKGRFTISRDNAKNTLFLQMTSLRSEDTAMYYCARFPTVVAARYPMDYWGQGTSVTVSS VL: DIQMTQTPSSLSASLGDRVTISCRASQDISNYLNWYQQKPDGTVKLLIYFTSRLHSGVPSRFSGGGSGTDYSLTISNLEQEDIATYFCQQGNTLPYTFGGGTKLEIK
49.6 | 0.0113 |  |  |  | murine anti-hIL-4R alpha monoclonal antibody 136 (antibody, V domains shown, Mouse hybridoma antibody purified on ProteinG) VH: EVQLVESGGGLVKPGGSLKLSCAASGFTFSDYGMHWVRQAPEKGLEWVAYISSGSTTIYYADTVKGRFTISRDNGKNTLFLQMTSLRSEDTAMYYCARISTVVAKRYAMDYWGQGTSVTVSS VL: DIQMTQTASSLSASLGDRVTISCRASQDISNYLNWYQQKPDGTVKLLIYYTSRLHSGVPSRFSGSGSGTDYSLTISNLEQEDIATYFCQQINALPLTFGAGTKLELK
59.7 | 0.01 |  |  |  | murine anti-hIL-4R alpha monoclonal antibody 120 (antibody, V domains shown, Mouse hybridoma antibody purified on ProteinG) VH: EVQLVESGGGLVKPGGSLKLSCAASGFTFSDYGMHWVRQAPEKGLEWVAYISSGSTTIYYADTVKGRFTISRDNGKNTLFLQMTSLRSEDTAMYYCARISTVVAKRYAMDYWGQGTSVTVSS VL: DIQMTQTASSLSASLGDRVTISCRASQDISNYLNWYQQKPDGTVKLLIYYTSRLHSGVPSRFSGSGSGTDYSLTISNLEQEDIATYFCQQINALPLTFGAGTKLELK
47.1 | 0.0138 |  |  |  | murine anti-hIL-4R alpha monoclonal antibody 131 (antibody, V domains shown, Mouse hybridoma antibody purified on ProteinG) VH: EVQLVESGGGLVKPGGSLKLSCAASGFTFSDYGMHWVRQAPEKGLEWVAYISSGSSTIYYADTVKGRFTISRDNAKNTLFLQMTSLRSEDTAMYYCARISTVVAKRYAMDYWGQGTSVTVSS VL: DIQMTQTASSLSASLGDRVTISCRASQDISNYLNWYQQKPDGTVKLLIYYTSRLHSGVPSRFSGSGSGTDYSLTISNLEQEDIATYFCQEVNMLPLTFGAGTKLELK
 |  | 0.403 | 0.00018 | 446000 | Dupilumab (antibody, V domains shown) VH: EVQLVESGGGLEQPGGSLRLSCAGSGFTFRDYAMTWVRQAPGKGLEWVSSISGSGGNTYYADSVKGRFTISRDNSKNTLYLQMNSLRAEDTAVYYCAKDRLSITIRPRYYGLDVWGQGTTVTVSS VL: DIVMTQSPLSLPVTPGEPASISCRSSQSLLYSIGYNYLDWYLQKSGQSPQLLIYLGSNRASGVPDRFSGSGSGTDFTLKISRVEAEDVGFYYCMQALQTPYTFGQGTKLEIKR
24.6 | 0.0096 |  |  |  | murine anti-hIL-4R alpha monoclonal antibody 81 (antibody, V domains shown, Mouse hybridoma antibody purified on ProteinG) VH: DVQLQQSGPELLKPGASVKIPCQASGYTFTDYNMDWVKQSHGKNLEWIGNINPNNGGTFYNQKFKGKATLTVDKSSSTAYMELRSLTSEDTAVYYCGRGGLRRRGFMDYWGQGTSVTVSS VL: QIVLSQSPAILSASPGEKVTMTCRASSSVIYIHWYQQKPGSSPKPWIYAASNLASGVPARFSGSGSGTSYSLTISRVEAEDAATYYCQQWSVNPPTFGGGTKLEIK
34.2 | 0.0131 |  |  |  | murine anti-hIL-4R alpha monoclonal antibody 228 (antibody, V domains shown, Mouse hybridoma antibody purified on ProteinG) VH: DVQLQQSGPELLKPGASVKIPCQASGYTFTDYNMDWVKQSHGKNLEWIGNINPNNGGTFYNQKFKGKATLTVDKSSSTAYMELRSLTSEDTAVYYCGRGGLRRRGFMDYWGQGTSVTVSS VL: QIVLSQSPAILSASPGEKVTMTCRASSSVIYIHWYQQKPGSSPKPWIYAASNLASGVPARFSGSGSGTSYSLTISRVEAEDAATYYCQQWSVNPPTFGGGTKLEIK
57 | 0.0099 |  |  |  | murine anti-hIL-4R alpha monoclonal antibody 54 (antibody, V domains shown, Mouse hybridoma antibody purified on ProteinG) VH: EVQLQQSGPELVKPGASVKIPCKASGYTFTDYNMDWVKQSHGKSLEWIGDINPNNGNILFNQKFKGKATLTVDKSSSTAYVELRSLTSEDTAVYYCGRGGLRRRGFMDYWGQGTSVTVSS VL: QIVLSQSPAILSASPGEKVTMTCRASSSVSYMHWYQQKPGSSPKPWIYAASNLASGVPARFSGSGSGTSYSLTISRVEAEDAATYYCQQWSSNPPTFGGGTKLEIK
22.4 | 0.0115 |  |  |  | murine anti-hIL-4R alpha monoclonal antibody 236 (antibody, V domains shown, Mouse hybridoma antibody purified on ProteinG) VH: EVQLQQSGPELVKPGASVKIPCKASGYTFTDYNVDWVKQSHGQSLDWIGTINPNNGGILSNQKFKGKATLTVDTSSSTAYMELRSLTSEDTAVYYCGRGGLRRRGFMDYWGQGTSVTVSS VL: QIVLSQSPAILSASPGEKVTMTCRASSSVIYIHWYYQKAGSSPKPWIYAASNLPSGVPARFSGSGSGTSYSLTISRVEAEDAATYYCQQWSSNPPTFGGGTKLEIK
67.2 | 0.0091 |  |  |  | murine anti-hIL-4R alpha monoclonal antibody 88 (antibody, V domains shown, Mouse hybridoma antibody purified on ProteinG) VH: DVQLQQSGPELLKPGASVKIPCQASGYTFTDYNMDWVKQSHGKNLEWIGTINPNNGGTFYNQNFKGKATLTVDKSSSTACMELRSLTSDDTAVYYCGRGGLRRRGFMDYWGQGTSVTVSS VL: QIVLSQSPAILSASPGEKVTMTCRASSSVIYIHWYQQKPGSSPKPWIYAASNLASGVPARFSGSGSGTSYSLTISRVEAEDAATYYCQQWSVNPPTFGGGTKLEIK
43.7 | 0.0106 |  |  |  | murine anti-hIL-4R alpha monoclonal antibody 64 (antibody, V domains shown, Mouse hybridoma antibody purified on ProteinG) VH: EVQLQQSGPELVKPGASVKISCKASGYTFTDYNMDWVKQSHGKSLEWIGTTNPNNGGTLYNQKFKGKATLTVDKSSSTAYMELRSLTSEDTAVYYCARGGLRRRGFVDYWGQGTSVTVSS VL: QIVLSQSPAILSASPGEKVTMTCRASSSVNYLHWYQQKPGSSPKPWIYATSNLASGVPARFSGSGSGTSYSLTISRVEAEDAATYYCQQWSSNPPTFGGGTKLEIK
31.3 | 0.0122 |  |  |  | murine anti-hIL-4R alpha monoclonal antibody 84 (antibody, V domains shown, Mouse hybridoma antibody purified on ProteinG) VH: DVQLQQSGRELLKRGASVKIPCQASGYTFTDYNMDWVKQSHGKNLEWIGNINPNNGGTFYNQKFKGKATLTVDKSSSTAYMELRSLTSEDTAVYYCGRGGLRRRGFMDYWGQGTSVTVSS VL: QIVLSQSPAILSASPGEKVTMTCRASSSVIYIHWYQQKPGSSPKPWIYAASNLASGVPARFSGSGSGTSYSLTISRVEAEDAATYYCQQWSVNPPTFGGGTKLEIK
53.7 | 0.012 |  |  |  | murine anti-hIL-4R alpha monoclonal antibody 100 (antibody, V domains shown, Mouse hybridoma antibody purified on ProteinG) VH: DVQLQQSGPELLKPGASVKIPCQASGYTFTDYNMDWVKQSHGKNLEWIGNINPNNGGTFYNQKFKGKATLTVDKSSSTAYMELRSLTSEDTAVYYCGRGGLRRRGFLDYWGQGTSVTVSS VL: QIVLSQSPAILSASPGEKVTMTCRASSSVIYIHWYQQKPGSSPKPWIYAVSNLASGVPVRFSGSGSGTSYSLTISRVEAEDAATYYCQQWSVNPPTFGGGTKLEIK
19 | 0.0089 |  |  |  | murine anti-hIL-4R alpha monoclonal antibody 55 (antibody, V domains shown, Mouse hybridoma antibody purified on ProteinG) VH: DVQLQQSGPELLKPGASVKIPCQASGYTFTDYNMDWVKQSHGKNLEWIGNINPNNGGTFYNQKFKGKATLTVDKSSSTAYMELRSLTSEDTAVYYCGRGGLRRRGFMDYWGQGTSVTVSS VL: QIVLSQSPAILSASPGEKVTMTCRASSSVIYIHWYQQKPGSSPKPWIYAASNLASGVPVRFSGSGSGTSYSLTISRVEAEDAATYYCQQWSVNPPTFGGGTKLEIK
 |  | 0.912 | 0.000658 | 721000 | humanized anti-hIL-4R alpha monoclonal antibody 228-Hu (antibody, human IgG4 S228P, kappa, V domains shown, Humanized, human IgG4 constant region; expressed in HEK293, purified on ProteinA) VH: QVQLVQSGAEVKKPGASVKVSCKASGYTFTDYNMDWVRQAPGQNLEWIGNINPNNGGTFYNQKFKGRATLTVDKSASTAYMELSSLRSEDTAVYYCARGGLRRRGFMDYWGQGTLVTVSS VL: EIVLTQSPATLSLSPGERATLSCRASSSVIYIHWYQQKPGQSPRPWIYAASNLASGVPARFSGSGSGTDYTLTISRLEPEDFAVYYCQQWSVNPPTFGQGTKLEIKR
